Data reported in article PMC4545750.

Target: Krimper Tudor2 domain (562-746) (D. melanogaster) (UniProt A1ZAC4)
Test: ITC

Sequence of UniProt A1ZAC4 (A1ZAC4 562-746): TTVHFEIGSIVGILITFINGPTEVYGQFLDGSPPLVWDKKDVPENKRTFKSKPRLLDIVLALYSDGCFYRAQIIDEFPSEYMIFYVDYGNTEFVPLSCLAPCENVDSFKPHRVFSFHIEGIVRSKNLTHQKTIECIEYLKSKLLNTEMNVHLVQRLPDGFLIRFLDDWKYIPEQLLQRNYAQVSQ

Row | Substance | Kd
1 | Aubergine peptide (residues 6 to 18) with symmetrically di-methylated arginine 15 (from UniProt O76922 6-18) | 4.1 µM
2 | Aubergine peptide (residues 6 to 18) with symmetrically di-methylated arginine 11 (from UniProt O76922 6-18) | 16.3 µM
